Starred links: 1 amine or outer side, 2 acyl side, 3 side chain; linkers in the order of their positions; H or OH if unused. No end group written: not given here. NH(CH2)3(OCH2CH2)2O(CH2)3NH = C(CN[*:1])COCCOCCOCCCN[*:2]
Legend:
NLpoly WT [1] = target: T1, NLpoly WT; assay: BRET wavelength scan, NLpoly WT lysate + peptide
T1 construct: also called WT NLpoly
T1 chain: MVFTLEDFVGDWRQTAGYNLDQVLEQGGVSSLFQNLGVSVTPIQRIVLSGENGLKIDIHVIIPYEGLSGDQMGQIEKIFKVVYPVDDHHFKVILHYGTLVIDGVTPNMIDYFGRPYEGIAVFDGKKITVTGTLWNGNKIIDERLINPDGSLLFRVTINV

NLpoly11S [2] = target: T2, NLpoly11S; assay: spectral scan of luminescence, purified NLpoly11S + peptide
T2 construct: Non-luminescent polypeptide (engineered large fragment of NanoLuc); Used as E. coli clarified lysate or as purified protein; also called 11S (12 - A51T); LSP 11S
T2 chain: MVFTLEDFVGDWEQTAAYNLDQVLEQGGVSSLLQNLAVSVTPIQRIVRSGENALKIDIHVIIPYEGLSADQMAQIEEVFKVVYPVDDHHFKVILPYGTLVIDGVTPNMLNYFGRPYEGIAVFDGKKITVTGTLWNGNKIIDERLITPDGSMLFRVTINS

NLpoly11S [3] = target: T2, NLpoly11S; assay: luminescence complementation titration on purified NLPoly11S, 1 site specific binding fit
NLpoly11S [4] = target: T2, NLpoly11S; assay: luminescence complementation titration, one-site specific binding fit
NLpoly WT [5] = target: T1, NLpoly WT; assay: luminescence complementation titration (E. coli lysate NLpoly, synthetic NLpep), one site-specific binding fit
NLpoly11S [6] = target: T2, NLpoly11S; assay: luminescence complementation titration at several furimazine concentrations, 1-site fit
NLpoly11S [7] = target: T2, NLpoly11S; assay: luminescence of purified NLpoly11S in NanoGlo with peptide

B1: PBI-4877 (peptide)
peptide: GVTGWRLCERILA-{NH(CH2)3(OCH2CH2)2O(CH2)3NH-6‑tetramethylrhodamine}
notes: also called NLpep1-TMR; NLPep1-fluorophore
B1: binds (NLpoly WT [1]); binds (NLpoly11S [2]).

B2: NLpep114 (peptide)
peptide: VTGYRLFEEIL
notes: Synthetic; also called NLpep114 (w/o Met)
B2: binds (NLpoly11S [3]).

B3: array2.52 (peptide)
peptide: Ac-VTGYRLFEEIL-NH2
B3 gave a Kd (NLpoly11S [4]) of 104 µM.

B4: NLpep1 (peptide)
peptide: GVTGWRLCERILA
notes: also called NLpepWT; NLPep1 (WT)
In the case of B4, the Kd (NLpoly WT [5]) is reported as about 10 µM and the binding result (NLpoly11S [6]) is reported as “binds”.

B5: GWALFKK (peptide)
peptide: GWALFKK
notes: Dark peptide; also called NLpep162 (w/o Met)
B5: binds (NLpoly11S [7]).

B6: Dabcyl-GWALFKK (peptide)
peptide: GWALFKK
modifications: not fully specified (N-terminus); printed as Dabcyl-GWALFKK
notes: Quencher peptide
B6: binds (NLpoly11S [7]).
